This note sets out measurements from patent publication US20140087995A1 (published 2014).

Numbered stars: 1 amine (or outer) side, 2 acyl side, 3 side chain; on linkers, the order of the positions; unused ones are H or OH. Bridge positions count the residues as written; N and C are the ends. Side chains are listed from the residue outwards. Ends that are not written are not given here. * marks the point of attachment. C20 diacid = O=C(O)CCCCCCCCCCCCCCCCCCC(=O)*; γGlu = O=C(O)[C@H](CCC(=O)[*:2])N[*:1]

In assay [1] the target is T1, rat amylin receptor (rat calcitonin receptor + rat RAMP 3) (rat, UniProt P32214 25-516; Q9JJ73 23-147).
T1 construct: whole, on cells; Used as membranes prepared from BHK tk'ts 13 cells transiently transfected with rat calcitonin receptor and rat RAMP 3 (Assay VI); also called rAmylin-R; rat amylin 3(a) receptor
T1 sequence (looked up) 1: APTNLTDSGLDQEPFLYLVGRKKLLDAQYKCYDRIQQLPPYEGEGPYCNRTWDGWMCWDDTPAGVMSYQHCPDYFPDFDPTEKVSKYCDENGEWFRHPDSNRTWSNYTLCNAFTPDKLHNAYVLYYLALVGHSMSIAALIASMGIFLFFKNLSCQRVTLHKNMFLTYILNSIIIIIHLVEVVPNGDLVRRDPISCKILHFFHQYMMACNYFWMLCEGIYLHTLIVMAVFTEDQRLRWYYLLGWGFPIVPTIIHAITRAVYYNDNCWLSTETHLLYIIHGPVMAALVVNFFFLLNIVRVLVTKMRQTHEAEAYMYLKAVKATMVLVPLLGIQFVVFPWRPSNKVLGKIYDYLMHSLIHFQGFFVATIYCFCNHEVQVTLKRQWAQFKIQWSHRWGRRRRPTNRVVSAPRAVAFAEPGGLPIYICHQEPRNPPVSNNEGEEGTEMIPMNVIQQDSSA
T1 sequence (looked up) 2: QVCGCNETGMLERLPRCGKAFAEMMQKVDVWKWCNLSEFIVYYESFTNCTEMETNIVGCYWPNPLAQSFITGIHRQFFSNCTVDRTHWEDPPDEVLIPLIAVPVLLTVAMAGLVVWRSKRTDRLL
Put plainly: SPA competition with 125I-rat amylin, membranes of BHK cells with rat CTR + rat RAMP3 (Assay VI).

Assay [2] addresses T2, rat calcitonin receptor (rat, UniProt P32214 25-516).
T2 construct: whole, on cells; Used as membranes prepared from BHK tk'ts 13 cells transiently transfected with the rat calcitonin receptor (Assay VIII); also called rCTR; rat calcitonin (a) receptor
T2 sequence (looked up): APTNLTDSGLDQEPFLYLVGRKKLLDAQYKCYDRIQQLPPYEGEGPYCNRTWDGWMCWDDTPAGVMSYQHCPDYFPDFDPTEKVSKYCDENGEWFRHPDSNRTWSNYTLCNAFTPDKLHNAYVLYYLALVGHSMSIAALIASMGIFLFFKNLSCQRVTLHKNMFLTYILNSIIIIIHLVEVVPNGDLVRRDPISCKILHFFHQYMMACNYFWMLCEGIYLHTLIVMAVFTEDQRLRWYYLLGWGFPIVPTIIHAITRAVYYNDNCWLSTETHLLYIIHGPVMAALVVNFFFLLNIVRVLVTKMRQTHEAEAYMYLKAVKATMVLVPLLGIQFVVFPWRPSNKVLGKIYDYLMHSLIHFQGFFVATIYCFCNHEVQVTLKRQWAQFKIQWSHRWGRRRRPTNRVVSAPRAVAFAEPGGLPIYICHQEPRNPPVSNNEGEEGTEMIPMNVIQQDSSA
Put plainly: IC50 on rat CTR divided by IC50 on rat amylin receptor (Assays VIII/VI).

Assay [3] concerns the target T3, human calcitonin receptor (human, UniProt P30988 25-474).
T3 construct: whole, on cells; Used as membranes prepared from a BHK tk'ts 13 cell line stably transfected with the human calcitonin receptor (Assay VII); also called hCTR; hCT
T3 sequence (looked up): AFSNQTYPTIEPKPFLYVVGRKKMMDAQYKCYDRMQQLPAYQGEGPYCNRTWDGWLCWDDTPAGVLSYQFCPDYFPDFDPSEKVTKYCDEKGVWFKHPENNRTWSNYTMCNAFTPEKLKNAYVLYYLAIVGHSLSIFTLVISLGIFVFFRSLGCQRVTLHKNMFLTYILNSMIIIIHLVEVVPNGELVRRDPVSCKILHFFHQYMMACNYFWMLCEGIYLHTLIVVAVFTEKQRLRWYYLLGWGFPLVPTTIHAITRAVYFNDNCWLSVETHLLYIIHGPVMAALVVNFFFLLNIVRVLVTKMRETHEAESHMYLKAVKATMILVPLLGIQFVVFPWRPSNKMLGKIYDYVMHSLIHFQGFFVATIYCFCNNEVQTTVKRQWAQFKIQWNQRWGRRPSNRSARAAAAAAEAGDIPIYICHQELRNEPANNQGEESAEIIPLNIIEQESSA
Put plainly: IC50 on human CTR divided by IC50 on human amylin receptor (Assays VII/V). In a few lines: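 IC₅₀ values were derived by one-site competition analysis of SPA counts. Cell membranes (35 ng/μL) with SPA beads were incubated with test compounds for 120 min at 25° C in Hepes buffer, pH 7.4, containing CaCl2, MgCl₂, OA and Tween20.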

The target of assay [4] is T2, rat calcitonin receptor. Put plainly: SPA competition with 125I-calcitonin, membranes of BHK cells with rat CTR (Assay VIII).

B1: N^ε1-[(4S)-4-carboxy-4-(19-carboxynonadecanoylamino)butanoyl]-[Arg17,Pro21,Pro27,Arg34]-h-amylin (peptide)
peptide: K([γGlu-C20 diacid])CNTATCATQRLANFLRHSSPNFGAIPSSTNVGRNTY-NH2
modifications: disulfide 2-7; N-terminus assumed
SMILES: CC[C@H](C)[C@H](NC(=O)[C@H](C)NC(=O)CNC(=O)[C@H](Cc1ccccc1)NC(=O)[C@H](CC(N)=O)NC(=O)[C@@H]1CCCN1C(=O)[C@H](CO)NC(=O)[C@H](CO)NC(=O)[C@H](Cc1c[nH]cn1)NC(=O)[C@H](CCCNC(=N)N)NC(=O)[C@H](CC(C)C)NC(=O)[C@H](Cc1ccccc1)NC(=O)[C@H](CC(N)=O)NC(=O)[C@H](C)NC(=O)[C@H](CC(C)C)NC(=O)[C@H](CCCNC(=N)N)NC(=O)[C@H](CCC(N)=O)NC(=O)[C@@H](NC(=O)[C@H](C)NC(=O)[C@@H]1CSSC[C@H](NC(=O)[C@@H](N)CCCCNC(=O)CC[C@H](NC(=O)CCCCCCCCCCCCCCCCCCC(=O)O)C(=O)O)C(=O)N[C@@H](CC(N)=O)C(=O)N[C@@H]([C@@H](C)O)C(=O)N[C@@H](C)C(=O)N[C@@H]([C@@H](C)O)C(=O)N1)[C@@H](C)O)C(=O)N1CCC[C@H]1C(=O)N[C@@H](CO)C(=O)N[C@@H](CO)C(=O)N[C@H](C(=O)N[C@@H](CC(N)=O)C(=O)N[C@H](C(=O)NCC(=O)N[C@@H](CCCNC(=N)N)C(=O)N[C@@H](CC(N)=O)C(=O)N[C@H](C(=O)N[C@@H](Cc1ccc(O)cc1)C(N)=O)[C@@H](C)O)C(C)C)[C@@H](C)O
notes: Analogue of human amylin; also called compound 79
In general, IC50 refers to the concentration that gives 50% inhibition. For B1, the figures for the IC50 in assay [1] and in assay [4] were 1.65 nM and 35.5 nM, respectively. In addition, the “Ratio rCT/rAmylin binding” value in assay [2] was 21.5. The “Ratio hCT/hAmylin binding” value in assay [3] was found to be 46.1.

B2: N^ε1-[(4S)-4-carboxy-4-(19-carboxynonadecanoylamino)butanoyl]-[Arg17,Pro21,Pro27,His34]-h-amylin (peptide)
peptide: K([γGlu-C20 diacid])CNTATCATQRLANFLRHSSPNFGAIPSSTNVGHNTY-NH2
modifications: disulfide 2-7; N-terminus assumed
SMILES: CC[C@H](C)[C@H](NC(=O)[C@H](C)NC(=O)CNC(=O)[C@H](Cc1ccccc1)NC(=O)[C@H](CC(N)=O)NC(=O)[C@@H]1CCCN1C(=O)[C@H](CO)NC(=O)[C@H](CO)NC(=O)[C@H](Cc1c[nH]cn1)NC(=O)[C@H](CCCNC(=N)N)NC(=O)[C@H](CC(C)C)NC(=O)[C@H](Cc1ccccc1)NC(=O)[C@H](CC(N)=O)NC(=O)[C@H](C)NC(=O)[C@H](CC(C)C)NC(=O)[C@H](CCCNC(=N)N)NC(=O)[C@H](CCC(N)=O)NC(=O)[C@@H](NC(=O)[C@H](C)NC(=O)[C@@H]1CSSC[C@H](NC(=O)[C@@H](N)CCCCNC(=O)CC[C@H](NC(=O)CCCCCCCCCCCCCCCCCCC(=O)O)C(=O)O)C(=O)N[C@@H](CC(N)=O)C(=O)N[C@@H]([C@@H](C)O)C(=O)N[C@@H](C)C(=O)N[C@@H]([C@@H](C)O)C(=O)N1)[C@@H](C)O)C(=O)N1CCC[C@H]1C(=O)N[C@@H](CO)C(=O)N[C@@H](CO)C(=O)N[C@H](C(=O)N[C@@H](CC(N)=O)C(=O)N[C@H](C(=O)NCC(=O)N[C@@H](Cc1c[nH]cn1)C(=O)N[C@@H](CC(N)=O)C(=O)N[C@H](C(=O)N[C@@H](Cc1ccc(O)cc1)C(N)=O)[C@@H](C)O)C(C)C)[C@@H](C)O
notes: Analogue of human amylin; also called compound 77
On to B2, for which the IC50 in assay [1] is 1.5 nM; in assay [4], 205 nM. Also, the “Ratio rCT/rAmylin binding” value in assay [2] was 137. The “Ratio hCT/hAmylin binding” value in assay [3] worked out at 118.

B3: N^ε1-[(4S)-4-carboxy-4-(19-carboxynonadecanoylamino)butanoyl]-[Glu14,Arg17,Pro21,Pro27,Arg35]-h-amylin (peptide)
peptide: K([γGlu-C20 diacid])CNTATCATQRLAEFLRHSSPNFGAIPSSTNVGSRTY-NH2
modifications: disulfide 2-7; N-terminus assumed
SMILES: CC[C@H](C)[C@H](NC(=O)[C@H](C)NC(=O)CNC(=O)[C@H](Cc1ccccc1)NC(=O)[C@H](CC(N)=O)NC(=O)[C@@H]1CCCN1C(=O)[C@H](CO)NC(=O)[C@H](CO)NC(=O)[C@H](Cc1c[nH]cn1)NC(=O)[C@H](CCCNC(=N)N)NC(=O)[C@H](CC(C)C)NC(=O)[C@H](Cc1ccccc1)NC(=O)[C@H](CCC(=O)O)NC(=O)[C@H](C)NC(=O)[C@H](CC(C)C)NC(=O)[C@H](CCCNC(=N)N)NC(=O)[C@H](CCC(N)=O)NC(=O)[C@@H](NC(=O)[C@H](C)NC(=O)[C@@H]1CSSC[C@H](NC(=O)[C@@H](N)CCCCNC(=O)CC[C@H](NC(=O)CCCCCCCCCCCCCCCCCCC(=O)O)C(=O)O)C(=O)N[C@@H](CC(N)=O)C(=O)N[C@@H]([C@@H](C)O)C(=O)N[C@@H](C)C(=O)N[C@@H]([C@@H](C)O)C(=O)N1)[C@@H](C)O)C(=O)N1CCC[C@H]1C(=O)N[C@@H](CO)C(=O)N[C@@H](CO)C(=O)N[C@H](C(=O)N[C@@H](CC(N)=O)C(=O)N[C@H](C(=O)NCC(=O)N[C@@H](CO)C(=O)N[C@@H](CCCNC(=N)N)C(=O)N[C@H](C(=O)N[C@@H](Cc1ccc(O)cc1)C(N)=O)[C@@H](C)O)C(C)C)[C@@H](C)O
notes: Analogue of human amylin; also called compound 51
In the case of B3, the IC50 stood at 0.523 nM in assay [1] and 62 nM in assay [4]. The “Ratio rCT/rAmylin binding” value in assay [2] came out at 119. In assay [3], the “Ratio hCT/hAmylin binding” value is 37.5.

B4: N^ε1-[(4S)-4-carboxy-4-(19-carboxynonadecanoylamino)butanoyl]-[Arg17,Pro21,Pro27,His35]-h-amylin (peptide)
peptide: K([γGlu-C20 diacid])CNTATCATQRLANFLRHSSPNFGAIPSSTNVGSHTY-NH2
modifications: disulfide 2-7; N-terminus assumed
SMILES: CC[C@H](C)[C@H](NC(=O)[C@H](C)NC(=O)CNC(=O)[C@H](Cc1ccccc1)NC(=O)[C@H](CC(N)=O)NC(=O)[C@@H]1CCCN1C(=O)[C@H](CO)NC(=O)[C@H](CO)NC(=O)[C@H](Cc1c[nH]cn1)NC(=O)[C@H](CCCNC(=N)N)NC(=O)[C@H](CC(C)C)NC(=O)[C@H](Cc1ccccc1)NC(=O)[C@H](CC(N)=O)NC(=O)[C@H](C)NC(=O)[C@H](CC(C)C)NC(=O)[C@H](CCCNC(=N)N)NC(=O)[C@H](CCC(N)=O)NC(=O)[C@@H](NC(=O)[C@H](C)NC(=O)[C@@H]1CSSC[C@H](NC(=O)[C@@H](N)CCCCNC(=O)CC[C@H](NC(=O)CCCCCCCCCCCCCCCCCCC(=O)O)C(=O)O)C(=O)N[C@@H](CC(N)=O)C(=O)N[C@@H]([C@@H](C)O)C(=O)N[C@@H](C)C(=O)N[C@@H]([C@@H](C)O)C(=O)N1)[C@@H](C)O)C(=O)N1CCC[C@H]1C(=O)N[C@@H](CO)C(=O)N[C@@H](CO)C(=O)N[C@H](C(=O)N[C@@H](CC(N)=O)C(=O)N[C@H](C(=O)NCC(=O)N[C@@H](CO)C(=O)N[C@@H](Cc1c[nH]cn1)C(=O)N[C@H](C(=O)N[C@@H](Cc1ccc(O)cc1)C(N)=O)[C@@H](C)O)C(C)C)[C@@H](C)O
notes: Analogue of human amylin; also called compound 60
Regarding B4, the results for the IC50 in assay [1] and in assay [4] were 0.215 nM and 26.3 nM, respectively. The “Ratio rCT/rAmylin binding” value in assay [2] worked out at 122. For the same molecule, the “Ratio hCT/hAmylin binding” value in assay [3] worked out at 45.2.
